# Laboratory results reported in US20030180282A1, “Method of treatment of thrombotic events” (priority 2002, published 2003).
# B1: t-PA: recombinant tissue plasminogen activator, thrombolytic agent (Genentech) (protein, UniProt P00750 36-562, looked up)
# Tissue-type plasminogen …: SYQVICRDEKTQMIYQQHQSWLRPVLRSNRVEYCWCNSGRAQCHSVPVKSCSEPRCFNGGTCQQALYFSDFVCQCPEGFAGKCCEIDTRATCYEDQGISYRGTWSTAESGAECTNWNSSALAQKPYSGRRPDAIRLGLGNHNYCRNPDRDSKPWCYVFKAGKYSSEFCSTPACSEGNSDCYFGNGSAYRGTHSLTESGASCLPWNSMILIGKVYTAQNPSAQALGLGKHNYCRNPDGDAKPWCHVLKNRRLTWEYCDVPSCSTCGLRQYSQPQFRIKGGLFADIASHPWQAAIFAKHRRSPGERFLCGGILISSCWILSAAHCFQERFPPHHLTVILGRTYRVVPGEEEQKFEVEKYIVHKEFDDDTYDNDIALLQLKSDSSRCAQESSVVRTVCLPPADLQLPDWTECELSGYGKHEALSPFYSERLKEAHVRLYPSSRCTSQHLLNRTVTDNMLCAGDTRSGGPQANLHDACQGDSGGPLVCLNDGRMTLVGIISWGLGCGQKDVPGVYTKVTNYLDWIRDNMRP
# Tests used:
# [1] = system: platelets; assay: flow cytometry of platelet surface receptor expression in AMI patients during first 24 hours after r-PA or t-PA; type: in vivo, human
# From the text: Twenty-three consecutive patients admitted to the emergency rooms of St. Agnes Hospital, or the Union Memorial Hospital between July and December of 1996 with a diagnosis of acute myocardial infarction were included. All patients were enrolled in the randomized trial of Reteplase (r-PA) versus accelerated Alteplase (t-PA) for the treatment of acute myocardial infarction, (GUSTO-III trial).
# Blood samples for PA, and for flow cytometric studies were taken at prespecified intervals as follows: in the emergency room immediately before administration of the thrombolytic therapy and then in the coronary care unit at 3 hours, 6 hours, 12 hours, and finally at 24 hours after initiation of the r-PA or t-PA therapy.
# Thirteen patients randomized to r-PA received a double bolus, 10+10 MU thirty minutes apart. Ten patients received t-PA in the accelerated regimen as a 15 mg bolus, then 0.75 mg/kg over 30 minutes, and then 0.50 mg/kg over 60 minutes. During the baseline sampling every patient had received 325 mg of aspirin and each day thereafter, at least 5,000 U of intravenous heparin. Following the administration of thrombolytic therapy all patients received a continuous infusion of heparin for the first 24 hours following thrombolysis as recommended in the GUSTO-III protocol.
# The schedule of blood drawing, sample preparation and processing were critical issues of the study design, and were monitored by an independent observer. The actual timing of blood collection for the baseline sample was 9.5±1.4 minutes before the start of thrombolytic therapy; 174.6±21.8 minutes for the 3 hours sample; 371.1±24.2 minutes for 6 hours sample; 709.4±17.8 minutes for 12 hours sample; and 1402.9±18.8 minutes for 24 hours sample. Samples were processed within one hour after blood drawing. […] The reasons for early termination were as follows: patient transfer for emergency coronary angioplasty (3 patients), and inability to obtain blood sample (1 patient). Twenty three baseline samples; twenty two samples collected at 3 hours; twenty samples collected at 6 hours; twenty samples collected at 12 hours; and nineteen samples collected at 24 hours were included in the study analysis.
# For flow cytometric analysis, venous blood (8 ml) was collected in a plastic tube containing 2 ml of acid-citrate-dextrose (ACD) (7.3 g citric acid, 22.0 g sodium citrate ×2H2O and 24.5 glucose in 1000 ml distilled water) and mixed well. The blood-ACD mixture was centrifuged at 1000 r.p.m. for 10 minutes at room temperature. The upper ⅔ of the platelet-rich plasma (PRP) was then collected and adjusted to pH=6.5 by adding ACD. The PRP was then centrifuged at 3000 r.p.m. for 10 minutes. The supernatant was removed and the platelet pellet was gently resuspended in 4 cc of the washing buffer (10 mM Tris/HCl, 0.15 M NaCl, 20 mM EDTA, pH=7.4). Platelets were washed 4 times in the washing buffer, and an additional four times in TBS (10 mM Tris, 0.15 M NaCl, pH=7.4). All cells were then divided into ten plastic capped tubes. Nine portions of washed platelets were incubated with 5 μl fluorescein isothiocyanate (FITC)-conjugated antibodies in the dark at +4° C. for 30 minutes, and one part remained unstained and served as a negative control. Surface antigen expression was measured with monoclonal murine anti-human antibodies: CD9 (p24); CD41a (IIb/IIIa, (IIb(3); CD42b (Ib); CD61(IIIa) (DAKO Corporation, Carpinteria Calif.); CD49b (VLA-2, or (2(1); CD62p (P selectin); CD31 (PECAM-1); CD 41b (IIb); and CD51/CD61 (vitronectin receptor, (v(3) (PharMingen, San Diego Calif.). After incubation, the cells were washed three times with TBS and resuspended in 0.25 ml of 1% paraformaldehyde. Samples were stored in the refrigerator at +4° C., and analyzed on a Becton Dickinson FACScan™ flow cytometry with laser output of 15 mw, excitation at 488 mm, and emission detection at 530±30 nm. […]
# [2] = system: platelets; assay: PFA-100 platelet function analyzer, closure time; type: cell-based, human; conditions: TNK 12 μg/mL, t-PA 4 μg/mL
# Description: Blood samples for the in vitro study were obtained from 9 healthy volunteers. None of the subjects smoked or had hypertension, diabetes, or an abnormal hematocrit. None had received aspirin or any other antiplatelet drugs. All subjects underwent blood sampling after at least 30 minutes of rest and 2 or more hours of fasting. Blood was drawn from an antecubital vein between 8 am and 10 am in order to avoid any diurnal influence. A 21-gauge butterfly needle was used to draw blood into a tube containing 3.8% sodium citrate (1:9 volume); the first 1.5 mL of free running blood was discarded. One tube was kept as an internal control. A second tube was incubated with tenecteplase (TNK) for 30 minutes at room temperature in order to achieve a final concentration of 12 μg/mL. The third tube was similarly incubated with alteplase (t-PA) to achieve a concentration of 4 μg/mL. The concentrations of TNK and t-PA that were chosen approximated conventional plasma levels observed in patients receiving TNK and t-PA bolus (30 mg, and 15 mg, respectively; data on file, Genentech, Inc., South San Francisco, Calif.). Fresh solutions of TNK and t-PA were prepared in Dulbecco's phosphate buffered saline (DPBS) ex tempore on the morning of the platelet studies.
# The PFA-100™ (Dade Behring, Deerfield, Ill.) is a high shear-inducing platelet function analyzer that simulates primary hemostasis after injury to a small vessel under flow conditions (see, e.g. Kundu, S. K. et al. (1996) Clin. Appl. Thromb. Hemost. 2:241-249). The device provides a constant negative pressure that aspirates a whole blood-citrate mixture, which comes into contact with a collagen-coated membrane and then passes through an aperture. The time required to obtain occlusion of the aperture is digitally recorded and is a measure of shear-induced platelet aggregation.
# For all comparisons, statistical analyses were done by using repeated measures ANOVA. […] Normally distributed data were expressed as mean±SE, and skewed data as median (range). […]
# [3] = "accelerated" regimen, GUSTO trial; cited from earlier work
molecule,measurement,setting,value
B1,glycoprotein IIIa expression compared to baseline,[1]; 12 hours,not after t-PA therapy
same,glycoprotein Ib expression compared to baseline,[1]; 12 hours,significant inhibition
same,platelet vitronectin receptor expression,[1]; 12 hours after thrombolysis,significant increase
same,glycoprotein IIIa expression compared to baseline,[1]; 24 hours,not after t-PA therapy
same,glycoprotein IIb/IIIa expression compared to baseline,[1]; 24 hours,elevated
same,p24 (CD 9) expression compared to baseline,[1]; 24 hours,higher
same,platelet vitronectin receptor expression,[1]; 24 hours after thrombolysis,trended toward the baseline
same,"P-selectin expression, early change",[1]; early,early significant decrease
same,p24 (CD 9) expression compared to baseline,[1]; early time points,no early receptor inhibition
same,"P-selectin expression, later change",[1]; following the early decrease,significant increase
same,closure time (PFA-100) compared with DPBS,[2],prolongation
same,benefit in mortality reduction,[3],further benefit
